Assay results as given in the supplement of paper PMC10567573.

B1: WSB1 (parent)
chain: DLKDDGNMMKVLRGHQNWVYSCAF

Variants of: B1
Experiment: protein stability index of a GFP-peptide fusion (GPS, HEK-293T) (PSI 1-6); higher = more stable
Settings: c terminus: a fixed tail appended
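Also: lentivirally expressed fusions sorted by FACS into six bins by GFP to DsRed ratio, PSI derived from sequencing read proportions per bin multiplied by bin number.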

Row | Variant | protein stability index
1 | DLKDDGNMMKVLRGHKNWVYSCAF [Q16K] | 2.41
2 | DLKDDGNMMKVLRGHFNWVYSCAF [Q16F] | 2.8
3 | DLKDDGNMMKVLRGHQNWVYSCTF [A23T] | 1.6
4 | DLKDDGNMMKVLRGHQNWVYSCLF [A23L] | 1.22
5 | DLKDDGNMMKVLRGHQNWVYSCCF [A23C] | 2.5
6 | DLKDDGNMMKVLRGHQNWVYSCRF [A23R] | 2.36
7 | DLKDDGNMMKVLRGHQNWVYSCMF [A23M] | 1.44
8 | DLKDDGNMMKVLRGHQNWVYSCPF [A23P] | 2.5
9 | DLKDDGNMMKVLRGHQNWVYSCKF [A23K] | 1.31
10 | DLKDDGNMMKVLRGHQNWVYSCIF [A23I] | 1.43
11 | DLKDDGNMMKVLRGHQNWVYSCHF [A23H] | 1.75
12 | DLKDDGNMMKVLRGHQNWVYSCGF [A23G] | 1.73
13 | DLKDDGNMMKVLRGHQNWVYSCSF [A23S] | 2.94
14 | DLKDDGNMMKVLRGHQNWVYSCNF [A23N] | 2.22
15 | DLKDDGNMMKVLRGHQNWVYSCVF [A23V] | 1.71
16 | DLKDDGNMMKVLRGHQNWVYSCYF [A23Y] | 2.29
17 | DLKDDGNMMKVLRGHQNWVYSCFF [A23F] | 2.17
18 | DLKDDGNMMKVLRGHQNWVYSCEF [A23E] | 2.24
19 | DLKDDGNMMKVLRGHQNWCYSCAF [V19C] | 2.73
20 | DLKDDGNMMKVLRGHQNWWYSCAF [V19W] | 2.28
21 | DLKDDGNMMKVLRGHQNWIYSCAF [V19I] | 2.13
22 | DLKDDGNMMKVLRGHQNWPYSCAF [V19P] | 2.03
23 | DLKDDGNMMKVLRGHQNWTYSCAF [V19T] | 1.71
24 | DLKDDGNMMKVLRGHQNWGYSCAF [V19G] | 2.66

Row | Variant | protein stability index
25 | DLKDDGNMMKVLRGHQNWMYSCAF [V19M] | 2.52
26 | DLKDDGNMMKVLRGHQNWFYSCAF [V19F] | 1.34
27 | DLKDDGNMMKVLRGHQNWLYSCAF [V19L] | 2.22
28 | DLKDDGNMMKVLRGHQNWYYSCAF [V19Y] | 2.87
29 | DLKDDGNMMKVLRGHQNWKYSCAF [V19K] | 1.75
30 | DLKDDGNMMKVLRGHQNWRYSCAF [V19R] | 2.86
31 | DLKDDGNMMKVLRGHQNWSYSCAF [V19S] | 1.04
32 | DLKDDGNMMKVLRGHQNWDYSCAF [V19D] | 2.15
33 | DLKDDGNMMKVLRGHQNWQYSCAF [V19Q] | 2.07
34 | DLKDDGNMMKVLRGHQNWNYSCAF [V19N] | 1.44
35 | DLKDDGNMMKVLRGHQNWAYSCAF [V19A] | 2.53
36 | DLKDDGNMMKVLRGHQNWHYSCAF [V19H] | 2.12
37 | DLKDDGNMMKVLRGHQNWVVSCAF [Y20V] | 3.3
38 | DLKDDGNMMKVLRGHQNWVCSCAF [Y20C] | 3.17
39 | DLKDDGNMMKVLRGHQNWVGSCAF [Y20G] | 1.97
40 | DLKDDGNMMKVLRGHQNWVQSCAF [Y20Q] | 1.68
41 | DLKDDGNMMKVLRGHQNWVWSCAF [Y20W] | 2.28
42 | DLKDDGNMMKVLRGHQNWVMSCAF [Y20M] | 1.61
43 | DLKDDGNMMKVLRGHQNWVHSCAF [Y20H] | 2.06
44 | DLKDDGNMMKVLRGHQNWVPSCAF [Y20P] | 1.84
45 | DLKDDGNMMKVLRGHQNWVDSCAF [Y20D] | 1.69
46 | DLKDDGNMMKVLRGHQNWVTSCAF [Y20T] | 2.63
47 | DLKDDGNMMKVLRGHQNWVASCAF [Y20A] | 2.28
48 | DLKDDGNMMKVLRGHQNWVRSCAF [Y20R] | 2.05

Row | Variant | protein stability index
49 | DLKDDGNMMKVLRGHQNWVLSCAF [Y20L] | 2.57
50 | DLKDDGNMMKVLRGHQNWVSSCAF [Y20S] | 1.83
51 | DLKDDGNMMKVLRGHQNWVKSCAF [Y20K] | 1.39
52 | DLKDDGNMMKVLRGHQNWVFSCAF [Y20F] | 1.66
53 | DLKDDGNMMKVLRGHQNWVESCAF [Y20E] | 1.6
54 | DLKDDGNMMKVLRGHQNWVYSCAP [F24P] | 2.95
55 | DLKDDGNMMKVLRGHQNWVYSCAI [F24I] | 2.28
56 | DLKDDGNMMKVLRGHQNWVYSCAE [F24E] | 1.82
57 | DLKDDGNMMKVLRGHQNWVYSCAQ [F24Q] | 2.21
58 | DLKDDGNMMKVLRGHQNWVYSCAC [F24C] | 1.47
59 | DLKDDGNMMKVLRGHQNWVYSCAK [F24K] | 2.34
60 | DLKDDGNMMKVLRGHQNWVYSCAD [F24D] | 3.3
61 | DLKDDGNMMKVLRGHQNWVYSCAH [F24H] | 3.34
62 | DLKDDGNMMKVLRGHQNWVYSCAG [F24G] | 2.19
63 | DLKDDGNMMKVLRGHQNWVYSCAT [F24T] | 1.98
64 | DLKDDGNMMKVLRGHQNWVYSCAN [F24N] | 2.18
65 | DLKDDGNMMKVLRGHQNWVYSCAS [F24S] | 2.89
66 | DLKDDGNMMKVLRGHQNWVYSCAM [F24M] | 2.27
67 | DLKDDGNMMKVLRGHQNWVYSCAA [F24A] | 2.14
68 | DLKDDGNMMKVLRGHQNWVYSCAR [F24R] | 2.33
69 | DLKDDGNMMKVLRGHQNWVYSCAV [F24V] | 2.97
70 | DLKDDGNMMKVLRGHQNWVYSCAW [F24W] | 4.14
71 | DLKDDGNMMKVLRGHQNWVYSCAY [F24Y] | 2.38
72 | DLKDDGNMMKVLRGHQNWVYSCAL [F24L] | 3.07

Row | Variant | protein stability index
73 | DLKDDGNMMKVLRGHQNWVYRCAF [S21R] | 1.22
74 | DLKDDGNMMKVLRGHQNWVYNCAF [S21N] | 1.46
75 | DLKDDGNMMKVLRGHQNWVYGCAF [S21G] | 2.27
76 | DLKDDGNMMKVLRGHQNWVYTCAF [S21T] | 1.07
77 | DLKDDGNMMKVLRGHQNWVYDCAF [S21D] | 2.05
78 | DLKDDGNMMKVLRGHQNWVYECAF [S21E] | 1.94
79 | DLKDDGNMMKVLRGHQNWVYPCAF [S21P] | 2.05
80 | DLKDDGNMMKVLRGHQNWVYYCAF [S21Y] | 3.37
81 | DLKDDGNMMKVLRGHQNWVYACAF [S21A] | 2.3
82 | DLKDDGNMMKVLRGHQNWVYHCAF [S21H] | 2.05
83 | DLKDDGNMMKVLRGHQNWVYKCAF [S21K] | 1.07
84 | DLKDDGNMMKVLRGHQFWVYSCAF [N17F] | 2.34
85 | DLKDDGNMMKVLRGHQPWVYSCAF [N17P] | 1.86
86 | DLKDDGNMMKVLRGHQSWVYSCAF [N17S] | 1.81
87 | DLKDDGNMMKVLRGHQRWVYSCAF [N17R] | 2.05
88 | DLKDDGNMMKVLRGHQQWVYSCAF [N17Q] | 2.95
89 | DLKDDGNMMKVLRGHQHWVYSCAF [N17H] | 1.26
90 | DLKDDGNMMKVLRGHQGWVYSCAF [N17G] | 1.78
91 | DLKDDGNMMKVLRGHQDWVYSCAF [N17D] | 1.94
92 | DLKDDGNMMKVLRGHQEWVYSCAF [N17E] | 1.68
93 | DLKDDGNMMKVLRGHQKWVYSCAF [N17K] | 2.1
94 | DLKDDGNMMKVLRGHQAWVYSCAF [N17A] | 2.33
